Experimental data from publication doi:10.1101/2021.08.25.457680.
Where no end group is shown, it is not given here.

Legend:
[1] = target: hDLG1 PDZ1+2 tandem (human) (UniProt Q12959); test: NMR titration
[2] = target: hDLG1 PDZ1 domain (human); test: NMR titration
[3] = target: syntenin-1 PDZ1 domain (human); test: NMR titration
[4] = target: syntenin-1 PDZ2 domain (human); test: NMR titration
[5] = target: hDLG1 PDZ1 domain (human); test: ITC
[6] = target: hDLG1 PDZ2 domain (human); test: ITC
Chain of hDLG1 PDZ2 domain (human) (Q12959 219-551): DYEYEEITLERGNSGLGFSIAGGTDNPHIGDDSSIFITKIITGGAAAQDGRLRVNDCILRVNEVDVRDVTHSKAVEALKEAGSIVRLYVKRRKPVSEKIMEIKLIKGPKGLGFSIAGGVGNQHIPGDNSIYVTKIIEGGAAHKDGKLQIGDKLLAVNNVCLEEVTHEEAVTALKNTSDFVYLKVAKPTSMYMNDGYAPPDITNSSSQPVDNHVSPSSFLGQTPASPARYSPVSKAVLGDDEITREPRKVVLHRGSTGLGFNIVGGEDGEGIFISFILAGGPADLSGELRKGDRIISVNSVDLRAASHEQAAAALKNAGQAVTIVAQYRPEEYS

Chain of hDLG1 PDZ1 domain (human) (Q12959 219-551): as above
Chain of syntenin-1 PDZ1 domain (human) (O00560 whole entry, the tested form may be a part): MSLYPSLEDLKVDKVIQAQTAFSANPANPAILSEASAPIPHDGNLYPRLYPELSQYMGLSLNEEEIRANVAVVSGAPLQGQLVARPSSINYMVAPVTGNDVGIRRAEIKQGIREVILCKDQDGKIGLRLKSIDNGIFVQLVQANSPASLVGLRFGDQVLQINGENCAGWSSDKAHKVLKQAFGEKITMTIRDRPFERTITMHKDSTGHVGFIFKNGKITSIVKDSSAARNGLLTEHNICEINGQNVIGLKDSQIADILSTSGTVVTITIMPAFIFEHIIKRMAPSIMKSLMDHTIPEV
Chain of syntenin-1 PDZ2 domain (human) (O00560 whole entry, the tested form may be a part): as above

## Tax2 10mer peptide (last 10 amino acids of Tax-2)
[1]
  Kd: > 5000 µM

B1: C-terminally amidated Tax-1 10mer peptide (Tax-1mod) (peptide)
peptide: SEKHFRETEV
modifications: not fully specified (C-terminus)
[2]
  Kd: 951 µM

B2: Tax-1 10mer peptide (last 10 C-terminal amino acids of Tax-1) (peptide)
peptide: SEKHFRETEV
[3]
  Kd: 2580 µM
[4]
  Kd: 1550 µM
[5]
  Kd: 2.7 µM
  dH: -8 kcal/mol
  stoichiometry N: 1.03
[6]
  Kd: 0.9 µM
  dH: -10.4 kcal/mol
  stoichiometry N: 0.99
